Literature values in PMC9709720, “An orally available small molecule that targets soluble TNF to deliver anti-TNF biologic-like efficacy in rheumatoid arthritis” (Frontiers in Pharmacology, 2022).

System: free soluble TNF in human synovial tissue
Set-up: method as in Tani et al. (2013)
Conditions: one third of reported steady state concentration, synovial fluid; ref Tani et al. (2013)

| Substance | Css^f used in model |
| --- | --- |
| etanercept | 2.2 nM |
| infliximab | 17 nM |
